Columns and labels:
[1] = target: CA24-2人腹水; assay: ELISA OD450/630, antibody 0 ng/ml (blank well), CA24-2 human ascites, HRP-labelled same antibody
[2] = target: CA24-2人腹水; assay: ELISA OD450/630, antibody 125 ng/ml captured on goat anti-mouse IgG, CA24-2 human ascites, HRP-labelled same antibody
[3] = target: CA24-2人腹水; assay: ELISA OD450/630, antibody 62.5 ng/ml captured on goat anti-mouse IgG, CA24-2 human ascites, HRP-labelled same antibody
[4] = target: CA24-2人腹水; assay: ELISA OD450/630, antibody 31.25 ng/ml captured on goat anti-mouse IgG, CA24-2 human ascites, HRP-labelled same antibody
[5] = target: CA24-2人腹水; assay: ELISA OD450/630, antibody 7.813 ng/ml captured on goat anti-mouse IgG, CA24-2 human ascites, HRP-labelled same antibody
[6] = target: CA24-2人腹水; assay: ELISA OD450/630, antibody 15.625 ng/ml captured on goat anti-mouse IgG, CA24-2 human ascites, HRP-labelled same antibody
[7] = target: CA24-2人腹水; assay: ELISA OD450/630: supernatant of transiently transfected CHO cells diluted 1000-fold, captured on goat anti-mouse IgG, CA24-2 human ascites, HRP-anti-CA24-2 detection; wells without supernatant OD <0.1

- OD450 [1]: 0.052 OD
- OD450 [2]: 1.63 OD
- OD450 [3]: 1.46 OD
- OD450 [4]: 0.734 OD
- OD450 [5]: 0.246 OD
- OD450 [6]: 0.329 OD
- OD450 [7]: > 1 OD
B1: 实施例1的抗CA24-2抗体(WT) (antibody, mouse IgG1, kappa, V domains shown)
VH: EVKLVESGGGLVQPGGSLRLTCATSAFTFSDYYMEWVRQPPGKALEWLGFIRKKADGYTTEYSASIKGRFTISRDDSQNILYLQMNTLRAEDSATYYCARGISTATGVAYWGQGTLVTVSA
VL: DIVMTQSPSSLALSVGQKVTMSCKSSQSIVNTSNQKNYLAWYQQKPGQSPKLLVYWASTRETGVPDRFIGSGSGTDFTLAISSVQAEDLADYYCQQHYSVPFTFGSGTKLEIKR

From patent publication CN114605551A
